This assay addresses CD84 on CD4+ T cells of wild-type mice (mouse) (UniProt Q18PI6). The assay can be described thus: cell-based or functional assay.
UniProt Q18PI6, sequence (Q18PI6 22-329): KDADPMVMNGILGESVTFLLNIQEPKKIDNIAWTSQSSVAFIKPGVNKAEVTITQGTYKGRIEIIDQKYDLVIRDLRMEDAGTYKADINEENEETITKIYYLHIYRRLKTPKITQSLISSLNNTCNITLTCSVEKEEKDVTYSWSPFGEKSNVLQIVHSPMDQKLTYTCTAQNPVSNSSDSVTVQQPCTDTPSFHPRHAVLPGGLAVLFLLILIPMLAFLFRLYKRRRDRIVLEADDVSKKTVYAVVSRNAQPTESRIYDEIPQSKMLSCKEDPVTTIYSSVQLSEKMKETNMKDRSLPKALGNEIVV

“platelet-derived soluble CD84 (sCD84) in the releasate of GPVI-stimulated WT mouse platelets (from UniProt Q18PI6 22-221) (receptor)” registered a distance and speed of migrating T cells (migration assay with platelet releasate) of 25%.

The values are drawn from patent US20220372159A1.
